Test results: paper PMC8130932 (PLoS Pathogens, 2021)

Tests used:
[1] = molecular target: T1, Human coronavirus OC43 spike glycoprotein S1+S2 extracellular domain (Human coronavirus OC43, AVR40344.1 (by …)); assay: ELISA
T1 construct: source: bought: Sino Biologicals
T1 chain: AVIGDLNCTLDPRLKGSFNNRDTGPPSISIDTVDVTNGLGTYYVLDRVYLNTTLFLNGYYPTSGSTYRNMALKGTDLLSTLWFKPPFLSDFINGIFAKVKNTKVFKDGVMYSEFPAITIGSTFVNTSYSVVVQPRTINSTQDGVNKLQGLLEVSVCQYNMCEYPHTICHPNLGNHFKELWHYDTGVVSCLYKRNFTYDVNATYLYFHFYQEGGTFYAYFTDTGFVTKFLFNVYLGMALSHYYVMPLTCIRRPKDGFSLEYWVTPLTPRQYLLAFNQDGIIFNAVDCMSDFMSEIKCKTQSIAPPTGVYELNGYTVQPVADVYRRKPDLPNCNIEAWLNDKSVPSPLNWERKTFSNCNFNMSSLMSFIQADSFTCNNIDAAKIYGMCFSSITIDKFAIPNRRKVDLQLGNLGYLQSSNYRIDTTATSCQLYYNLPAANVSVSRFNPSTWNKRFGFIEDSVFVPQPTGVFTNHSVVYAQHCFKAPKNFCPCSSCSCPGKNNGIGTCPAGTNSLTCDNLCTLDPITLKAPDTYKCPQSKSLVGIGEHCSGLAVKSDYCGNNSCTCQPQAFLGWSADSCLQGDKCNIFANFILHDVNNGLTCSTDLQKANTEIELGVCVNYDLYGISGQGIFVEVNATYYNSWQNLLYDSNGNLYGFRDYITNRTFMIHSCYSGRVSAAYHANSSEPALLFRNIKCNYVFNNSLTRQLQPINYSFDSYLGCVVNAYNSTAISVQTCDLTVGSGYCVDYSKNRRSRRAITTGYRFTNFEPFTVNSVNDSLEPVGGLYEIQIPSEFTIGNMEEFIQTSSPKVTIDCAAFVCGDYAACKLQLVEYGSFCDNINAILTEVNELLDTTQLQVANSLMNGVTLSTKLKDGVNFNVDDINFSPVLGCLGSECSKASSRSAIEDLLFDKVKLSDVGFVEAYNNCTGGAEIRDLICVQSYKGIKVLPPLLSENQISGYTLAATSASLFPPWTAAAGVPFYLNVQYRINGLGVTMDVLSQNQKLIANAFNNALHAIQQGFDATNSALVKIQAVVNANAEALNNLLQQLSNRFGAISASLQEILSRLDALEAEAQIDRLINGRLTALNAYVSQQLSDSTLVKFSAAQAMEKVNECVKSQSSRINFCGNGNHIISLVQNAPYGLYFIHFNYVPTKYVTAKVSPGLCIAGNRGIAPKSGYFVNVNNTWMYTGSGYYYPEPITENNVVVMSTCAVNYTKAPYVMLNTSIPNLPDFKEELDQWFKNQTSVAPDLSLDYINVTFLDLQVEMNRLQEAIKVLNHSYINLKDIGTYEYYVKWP

[2] = molecular target: T2, SARS-CoV-2 spike S2 subunit, recombinant (SARS-CoV-2, reference sequence, UniProt P0DTC2); assay: ELISA
T2 construct: source: bought: Sino Biologicals, baculovirus-insect cells

[3] = molecular target: SARS-CoV-2 spike glycoprotein of wild-type virus, in infected Vero E6 cells (SARS-CoV-2 …, UniProt P0DTC2); assay: cell-based or functional assay
[4] = molecular target: T3, MERS spike glycoprotein S1+S2 extracellular domain (MERS coronavirus, isolate EMC/2012 (by …, UniProt K0BRG7)); assay: ELISA
T3 construct: source: bought: Sino Biologicals, baculovirus-insect cells

[5] = molecular target: T4, SARS-CoV-2 NTD on MDCK-SIAT1 cells (SARS-CoV-2 (so in the source)); assay: flow cytometry on cells; details: one partner purified
T4 construct: also called MDCK-NTD

[6] = molecular target: T5, SARS-CoV-2 RBD (amino acids 340-538) on MDCK-SIAT1 cells (SARS-CoV-2 (so in the source)); assay: flow cytometry on cells; details: one partner purified
T5 construct: also called MDCK-RBD; source: MDCK-SIAT1, stably transduced (lentiviral vector), on the cell surface

[7] = molecular target: SARS-CoV-2 nucleocapsid, recombinant (SARS-CoV-2, reference sequence, UniProt P0DTC9); assay: ELISA
[8] = molecular target: T6, SARS nucleocapsid, recombinant (SARS-CoV, reference sequence (strain …, UniProt P59595)); assay: ELISA
T6 construct: source: bought: Sino Biologicals, baculovirus-insect cells

Row | Binder | OD450 [1] | OD450 [2] | PRNT EC50, wild-type SARS-CoV-2 (hCoV-19/England/02/2020) on Vero E6 cells [3] | OD450 [4] | binding result [5] | binding result [6] | OD450 [7] | OD450 [8]
1 | EW 9C (antibody, V domains shown, source: HEK293T, transfected; culture supernatant or purified) VH: EVQLVESGGGVVQPGASLRLSCVASGFTFNNFGFHWVRQAPGKGLEWLAVISYEGSKTYYAESLKGRFTISRDTSKNTVYLQMNSLRAEDTAVYYCARATSIFWFGEGRNWFDPWGQGTMVTVSS VL: EIVLTQSPGTVSLSAGERATLSCRASQNVGTDLAWYVQRPGQAPRLLIYDTSNKATGIPARFSGRGSGTDFTLTIDSLEPEDFAVYYCQQRSNWPLTFGGGTKVEIR | 1.82 OD450 | 1.17 OD450 | 133 nM |  |  |  |  | 
2 | FB 1E (antibody, V domains shown, source: HEK293T, transfected; culture supernatant or purified) VH: EVQLVESGAEVKKPGESLKISCQGSGYRFNSYWIAWVRQMPGKGLEWMGSIFPTDSDIRYNPSFQGQVTISADKSISIAYLQWSSLKASDTAIYYCARHWASMVRGVIRASHYYGMDVWGQGTTVTVSS VL: QSVLTQPPSASGSPGQSVTISCSGASSDIGDYNYVSWYQQLPGKAPKLLIYEVTKRPSGVPDRFSGSKSGNTASLTVSGLQADDEADYYCSSYAFGGSDIRVFGGGTKLAVL | 2.34 OD450 | 1.2 OD450 | 36 nM | 1.01 OD450 |  |  |  | 
3 | FB 9D (antibody, V domains shown, source: HEK293T, transfected; culture supernatant or purified) VH: QVQLVESGAEVKKPGESLKISCQGSGYRFNSYWIAWVRQMPGKGLEWMGSIFPTDSDVRYNPSFQGQVTISADKSISFAYLQWSSLKASDTAIYYCARHWASMVRGVIRASHYYGMDVWGQGTTVTVSS VL: QPVLTQPPSASGSPGQSVTISCSGASSDIGKYNYVSWYQQLPGKAPKLLIYEVTKRPSGVPDRFSGSKSGNTASLTVSGLQADDEADYYCSSYAFGGSDTRVFGGGTKLTVL | 2.13 OD450 | 1.27 OD450 |  | 1.5 OD450 | no binding | no binding |  | 
4 | FD 6D (antibody, V domains shown, source: HEK293T, transfected; culture supernatant or purified) VH: EVQLVESGPGLVKVSETLFLTCTVSGYSIGSGNYWGWIRQPPGKVLEWIGSTYHSGTTYYNPSLKSRVTISVDSSKNQFSLKLTSVTAADTAVYYCARDRLLAVHYDSRGYLVDYWGQGTMVTVSS VL: AIRMTQSPDSLAVSLGERATINCKSSQSIFYSSNNKNYLAWYQHKPGQPPKLLIYWASTRESGVPDRFSGSGSGTDFTLTISSLQAEDVAIYYCQQYYDIPRTFGQGTKVEIR |  |  |  |  |  |  | 1.73 OD450 | 1.19 OD450
5 | FN 2C (antibody, V domains shown, source: HEK293T, transfected; culture supernatant or purified) VH: EVQLLESGGGVVQPGRSLRLSCAASGFNFNNYGMHWVRQAPGKGLEWVATISYEGSKKFYVDSVKGRFTISKDNSKNTLYLQMNSLRVDDTAFYYCAKRREIFWLGEPPLSDAFDFWGQGTMVTVSS VL: QSVLTQPPSVSGAPGQRVTISCTGSGSNIGAGYDVHWYQFLPGTAPQLLIYGNNNRPSGVPDRFSGSKSGTSASLAITGLQAEDEADYYCQSYDSSLSGSVFGGGTKLTVL | 2.2 OD450 | 1.15 OD450 |  |  |  |  |  | 
6 | EY 2A (antibody, V domains shown, source: HEK293T, transfected; culture supernatant or purified) VH: QVQLVESGAEVTKPGDSLIISCKGSGYAFTQYWIGWVRQKPGKGLEWMAMVYPDSSAVFAGGASGVRYRPPFQGQVTISADTSVNTAYLQWDSLKASDTAMYYCVRQERGSNTWYAGNSWGQGTLVTVSS VL: DIVMTQSPLSLPVSPGEPASISCRSSQSLLHTDAYNYLDWYLQKPGQSPQLLIYLGSTRASGVPDRFSGSGSGTDFTLKISSVKAEDVGVYYCMQALQTPGTFGQGTKLEIK |  |  |  |  |  |  | 1.28 OD450 | 1.13 OD450
7 | EY 3B (antibody, V domains shown, source: HEK293T, transfected; culture supernatant or purified) VH: EVQLVESGAEVTKPGESLIISCKGSGYAFTQYWIGWVRQKPGKGLEWMAMVYPDSSAVFAGGASGVRYRPPFQGQVTISADTSVNTAYLQWDSLKASDTAMYYCVRQERGSNTWYAGNSWGQGTLVTVFS VL: EIVLTQSPLSLPVSPGEPASISCRSSQSLLHTDAYNYLDWYLQKPGQSPQLLIYLGSTRASGVPDRFSGSGSGTDFTLKISSVKAEDVGVYYCMQALQTPGTFGQGTKVEIR |  |  |  |  |  |  | 1.22 OD450 | 1 OD450
8 | FJ 4E (antibody, V domains shown, source: HEK293T, transfected; culture supernatant or purified) VH: QVQLVESGPGLVKPSETLSLTCSVSGGSISSGTYYWSWIRQQPGKGLEWIGYIYNTGRPYYNPFLKSRITISVDSSKNQFSLKLTSVTAADTAVYYCARDEYDSSDSGIQGHWFDPWGQGTLVTVSS VL: AIRMTQSPSSLSASVGDRVTITCRTSQNINSFLNWYQQKPGKGPNLLIYGAFTLQSGVPSRFSGSGSGTDFTLTISSLQPEDFATYFCQQSYSTPWTFGQGTKVEIK | 1.68 OD450 | 0.91 OD450 |  | 1.08 OD450 | no binding | no binding |  | 
9 | EZ 11A (antibody, V domains shown, source: HEK293T, transfected; culture supernatant or purified) VH: EVQLVESGGGLVQPGGSLRLSCAASGFTFSSYWMSWVRQAPGKGLEWVANIKQDGSEKYYVDSVKGRFTISRDNAKNSLYLQMNSLRAEDTAVYYCARDDYSGSYYWEFDYWGQGTLVTVSS VL: QPVLTQSPSASASLGASVKLTCTLSSGHSSYAIAWHQQQPEKGPRYLMKLNSDGSHSKGDGIPDRFSGSSSGAERYLTISSLQSEDEADYYCQTWGTGIWVFGGGTKLTVL |  |  |  |  |  |  | 1.29 OD450 | 1.31 OD450
